The text below walks through data of US20170015742A1 (published 2017).

Test [1] addresses T1, recombinant human VEGF-A 165 (human, UniProt P15692 207-395).
T1 construct: also called huVEGF-A165; hVEGF165
Nature of the test: receptor competition ELISA, biotinylated hVEGF165 binding to coated hVEGF-R2-Fc. The procedure: To identify molecules that could block the binding of hVEGF₁₆₅ to the hVEGF-R2 (KDR/Flk-1) receptor, a competition ELISA was performed. […] Plates were then washed four times with wash buffer (TBS, 0.05% Tween-20) and blocked with Superblock blocking buffer (Thermo Scientific, cat#37535). […] The pre-incubated sample/hVEGF₁₆₅ complex was added to the coated plate at 50 μL in duplicate and incubated for 30 minutes at 25° C. with shaking. Following incubation, plates were washed four times with wash buffer. Streptavidin-polyHRP-40 (Fitzgerald cal#65r-s104phrp) was diluted in assay diluent (10% Superblock containing 0.05% surfactamps) and added to plates (50 μL) for 45 minutes at 25° C. with shaking. Plates were washed four times with wash buffer and developed with the addition of Enhanced K-blue TMB substrate (Neogen cat#308177). The reaction was stopped with 2N sulfuric acid (VWR, cat# BDH3500-1) and the absorbance was read at 450 nm-570 nm. A decrease in observed optical density indicates the test molecule is blocking the hVEGF₁₆₅ binding to the hVEGF-R2-Fc. Data was analyzed using Softmax Pro 4.8 software and IC₅₀ values calculated using a sigmoidal dose response (variable slope) fit in GraphPad Prism 5.
Anti-VEGF-A antibodies derived from rat hybridomas were characterized for binding, function and cross-reactivity in a panel of assays. Supernatants were tested for the ability to bind hVEGF₁₆₅ (Example 1.3) and block binding of hVEGF₁₆₅ to hVEGFR2 in a competition ELISA format (Example 1.4).
(In general: In an ELISA, binding on a coated surface is turned into a signal by an enzyme label.)

The target of test [2] is T2, recombinant cynomolgus PDGF-BB (cynomolgus monkey, UniProt P01127 82-190 (human entry), limits assumed).
T2 chain: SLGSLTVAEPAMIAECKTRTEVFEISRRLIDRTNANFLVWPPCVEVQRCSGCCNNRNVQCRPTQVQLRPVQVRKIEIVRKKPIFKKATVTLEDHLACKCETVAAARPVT
Nature of the test: cell-based or functional assay.

Test [3] addresses recombinant murine PDGF-BB (mouse, UniProt P31240 82-190). Nature of the test: cell-based or functional assay.
The target in test [4] is recombinant human PDGF-BB (human, UniProt P01127 82-190). As to the kind of experiment: cell-based or functional assay.
Test [5] concerns the target recombinant human VEGF165 (human, UniProt P15692 207-395). Nature of the test: cell-based or functional assay.

T1 sequence (P15692 other isoform, or with tags, fused parts or gaps limits assumed): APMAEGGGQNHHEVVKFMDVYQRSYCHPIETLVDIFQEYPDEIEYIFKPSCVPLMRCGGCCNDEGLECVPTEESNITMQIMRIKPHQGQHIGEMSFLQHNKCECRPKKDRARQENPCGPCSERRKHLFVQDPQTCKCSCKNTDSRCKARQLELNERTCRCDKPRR
Sequence of recombinant human VEGF165 (P15692 other isoform, or with tags, fused parts or gaps limits assumed): as above
Sequence of recombinant murine PDGF-BB (P31240 82-190 limits assumed): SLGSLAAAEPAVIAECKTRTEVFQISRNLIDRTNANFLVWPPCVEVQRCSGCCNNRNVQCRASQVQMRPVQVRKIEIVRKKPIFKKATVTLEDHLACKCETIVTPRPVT

B1: BEW-3A1-D10-G9 (antibody, V domains shown)
VH: QVQLEQSGAELVKPGTSVKLSCMASGYTSSSNHMNWMKQTTGQGLEWIGIINPGSGGTRYNVKFEGKATLTVDKSSSTAFMQLNSLTPEDSAVYYCARAGFPGPFSYYAMGAWGQGTSVTVSS
VL: DIQMTQSPPVLSASVGDRVTLSCKASQNIHNNLDWYQQKHGEAPKLLIFYTNNLQTGIPSRFSGSGSGTDYTLTISSLQPEDVATYYCYQYNSGYTFGAGTKLELK
notes: Rat hybridoma anti-human VEGF-A monoclonal antibody, isotype IgG2b/kappa
B1: the IC50 in test [1] was 124 pM.

B2: BED-4G10-C8 (antibody, V domains shown)
VH: QVQLQQSGTELVKPGSSVKISCKASGYTFTSNYMHWIRQQPGNGLEWIGWIYPGDGDTNYNHNFNGKATLTADKSSSTAYMQLSSLTSEDFAVYFCASSTRAIPGWFTYWGQGTLVTVSS
VL: DTVLTQSPALAVSPGERVSISCWASESVSTLMHWYQQKLGQQPKLLIYGASNLESGVPARFRGSGSGTDFTLTIDPVEADDTATYFCQQSWSDPYTFGAGTKLELK
notes: as for B1
For the molecule B2, the 50% inhibitory concentration (IC50) in test [1] was found to be 130 pM.

B3: BDB-4G8-D4 (antibody, V domains shown)
VH: QIQLVQSGPELKKPGESVKISCKASGYTFTNYGMYWVKQAPGQGLQYMGWINTETGKPTYADDFKGRFVFFLETSASTAYLQINNLKNEDMATYFCARTNYYYRSYIFYFDYWGQGTMVTVSS
VL: DTVLTQSPALAVSPGERVSISCRASESVSTHMHWYQQKPGQQPKLLIYGASNLESGVPARFSGSGSGTDFTLTIDPVEADDTATYFCQQSWNDPFTFGAVTKLELK
notes: as for B1
For the molecule B3, the IC50 in test [1] came to 130 pM.

B4: BEW-9C2-D6 (antibody, V domains shown)
VH: QIQLVQSGPELKKPGESVKVSCKASGYTFTNYGIHWVKQAPGQGLQYVGWINTETGRPTYADDFKGRFVFFLETSASTAYLQINNLKNEDMATYFCARPLYYGYAHYFDYWGQGVMVTVSS
VL: DIQMTQSPASLSASLEEIVTITCQASQDIGNWLAWYQQKPGKSPQLLIYGATSLADGVPSRFSGSRSGTQYSLKISRLQVEDIGIYYCQQASSVTYTFGAGTKLELK
notes: as for B1
In the case of B4, the IC50 in test [1] came to 155 pM.

B5: 4G8.3-LS-9E8.4 (g) anti-VEGF-A/anti-PDGF-BB DVD-Ig (PR-1572106) (bispecific antibody, human IgG1, kappa, L234A L235A)
heavy: EVQLVQSGSELKKPGASVKVSCKASGYTFTNYGMYWVRQAPGQGLEWMGWINTETGKPTYADDFKGRFVFSLDTSVSTAYLQISSLKAEDTAVYYCARTNYYYRSYIFYFDYWGQGTMVTVSSASTKGPSVFPLAPEVTLRESGPALVKPTQTLTLTCTFSGFSLSTYGMGVGWIRQPPGKALEWLANIWWDDDKYYNPSLKNRLTISKDTSKNQVVLTMTNMDPVDTATYYCARIESIGTTYSFDYWGQGTMVTVSSASTKGPSVFPLAPSSKSTSGGTAALGCLVKDYFPEPVTVSWNSGALTSGVHTFPAVLQSSGLYSLSSVVTVPSSSLGTQTYICNVNHKPSNTKVDKKVEPKSCDKTHTCPPCPAPEAAGGPSVFLFPPKPKDTLMISRTPEVTCVVVDVSHEDPEVKFNWYVDGVEVHNAKTKPREEQYNSTYRVVSVLTVLHQDWLNGKEYKCKVSNKALPAPIEKTISKAKGQPREPQVYTLPPSREEMTKNQVSLTCLVKGFYPSDIAVEWESNGQPENNYKTTPPVLDSDGSFFLYSKLTVDKSRWQQGNVFSCSVMHEALHNAYTQKSLSLSPGK
light: DTVLTQSPATLSLSPGERATLSCRASESVSTHMHWYQQKPGQAPRLLIYGASNLESGVPARFSGSGSGTDFTLTISSLEPEDFAVYFCQQSWNDPFTFGQGTKLEIKRTVAAPEFVLTQSPGTLSLSPGERATLSCERSSGDIGDSYVSWYQQKPGQAPRLVIYADDQRPSGIPDRFSGSGSGTDFTLTISRLEPEDFAVYYCQSYDINIDIVFGGGTKVEIKRTVAAPSVFIFPPSDEQLKSGTASVVCLLNNFYPREAKVQWKVDNALQSGNSQESVTEQDSKDSTYSLSSTLTLSKADYEKHKVYACEVTHQGLSSPVTKSFNRGEC
Take B5: the “Potency IC50 (nM) cynoPDGF-BB (NIH-3T3 proliferation)” value in test [2] is 0.094 nM. The “Potency IC50 (nM) mPDGF-BB (NIH-3T3 proliferation)” value in test [3] was 0.14 nM.

B6: BEW-9E7-B4 (antibody, V domains shown)
VH: QIQLVQSGPELKKPGESVKISCKASGYTFTNYGMYWVKQAPGQGLQYMGWIDTETGKPTYADDFKGRFVFFLETSASTAYLQINNLRNEDMATYFCARWGYTSDYYYGWFPDWGQGTLVTVST
VL: DTVLTQSPALAVSPGERVSISCRASEGVNSYMHWYQQNPGQQPKLLIYKASNLASGVPARFSGSGSGTDFTLNIHPVEADDTATYFCQQNWNVPLTFGSGTKLEIK
notes: as for B1
For the molecule B6, in test [1], the IC50 came out at 207 pM.

B7: BEW-9D2-E8 (antibody, V domains shown)
VH: QIQLVQSGPELKKPGESVKISCKASGYTFTNYGMYWVKLAPGQGLQYLGWINTETGKPTYADDFKGRFVFFLETSASTAYLQINNLRNEDMATYFCARPSDYYDGFWFAYWGQGTLVTVSS
VL: DTVLTQSPALTVSPGERVSISCRASEWVNSYMHWYQQNPGQQPKLLIYKASNLASGVPARFSGSGSGTDFTLTLDPVEADDTATYFCQQSWNDPLTFGSGTKLEIK
notes: Rat hybridoma anti-human VEGF-A monoclonal antibody, isotype IgG2a/kappa
Consider B7, for which the IC50 in test [1] came to 127 pM.

B8: BEW-1B10-B9-C3 (antibody, V domains shown)
VH: EVQLVESGGGLVQPGRSLKLSCAASGFSFSKYDMAWFRQTPTKGLEWVASITTSGVGTYYRDSVKGRFTVSRDNAKSTLYLQMDSLRSEDTATYYCARGYGAMDAWGQGTSVTVSS
VL: DIQMTQSPASLSASLEEIVTITCKASQDIDDYLSWYQQKPGKSPQLVIYAATRLADGVPSRFSGSGSGTQYSLKISRLQVDDSGIYYCLQSSSTPWTFGGGTNLELK
notes: as for B7
On to B8, for which the IC50 in test [1] is 326 pM.

B9: CODV015 cross-over DVD-Ig (PR-1571827) (bispecific antibody, human IgG1, kappa, L234A L235A)
heavy: EVQLVQSGSELKKPGASVKVSCKASGYTFTNYGMYWVRQAPGQGLEWMGWINTETGKPTYADDFKGRFVFSLDTSVSTAYLQISSLKAEDTAVYYCARTNYYYRSYIFYFDYWGQGTMVTVSSGGGGSGGGEFVLTQSPGTLSLSPGERATLSCERSSGDIGDSYVSWYQQKPGQAPRLVIYADDQRPSGIPDRFSGSGSGTDFTLTISRLEPEDFAVYYCQSYDINIDIVFGGGTKVEIKGGGSGASTKGPSVFPLAPSSKSTSGGTAALGCLVKDYFPEPVTVSWNSGALTSGVHTFPAVLQSSGLYSLSSVVTVPSSSLGTQTYICNVNHKPSNTKVDKKVEPKSCDKTHTCPPCPAPEAAGGPSVFLFPPKPKDTLMISRTPEVTCVVVDVSHEDPEVKFNWYVDGVEVHNAKTKPREEQYNSTYRVVSVLTVLHQDWLNGKEYKCKVSNKALPAPIEKTISKAKGQPREPQVYTLPPSREEMTKNQVSLTCLVKGFYPSDIAVEWESNGQPENNYKTTPPVLDSDGSFFLYSKLTVDKSRWQQGNVFSCSVMHEALHNAYTQKSLSLSPGK
light: EVTLRESGPALVKPTQTLTLTCTFSGFSLSTYGMGVGWIRQPPGKALEWLANIWWDDDKYYNPSLKNRLTISKDTSKNQVVLTMTNMDPVDTATYYCARIESIGTTYSFDYWGQGTMVTVSSGGGGSGGGDTVLTQSPATLSLSPGERATLSCRASESVSTHMHWYQQKPGQAPRLLIYGASNLESGVPARFSGSGSGTDFTLTISSLEPEDFAVYFCQQSWNDPFTFGQGTKLEIKGGSRTVAAPSVFIFPPSDEQLKSGTASVVCLLNNFYPREAKVQWKVDNALQSGNSQESVTEQDSKDSTYSLSSTLTLSKADYEKHKVYACEVTHQGLSSPVTKSFNRGEC
Turning to B9, the “NIH-3T3 hPDGF-BB Potency IC50” value in test [4] came out at 75 pM. Further, the “HMVEC-d hVEGF165 Potency IC50” value in test [5] turned out to be 104 pM.

B10: CODV016 cross-over DVD-Ig (PR-1571828) (bispecific antibody, human IgG1, kappa, L234A L235A)
heavy: EVQLVQSGSELKKPGASVKVSCKASGYTFTNYGMYWVRQAPGQGLEWMGWINTETGKPTYADDFKGRFVFSLDTSVSTAYLQISSLKAEDTAVYYCARTNYYYRSYIFYFDYWGQGTMVTVSSGGGGSGGGEFVLTQSPGTLSLSPGERATLSCERSSGDIGDSYVSWYQQKPGQAPRLVIYADDQRPSGIPDRFSGSGSGTDFTLTISRLEPEDFAVYYCQSYDINIDIVFGGGTKVEIKGGGSGASTKGPSVFPLAPSSKSTSGGTAALGCLVKDYFPEPVTVSWNSGALTSGVHTFPAVLQSSGLYSLSSVVTVPSSSLGTQTYICNVNHKPSNTKVDKKVEPKSCDKTHTCPPCPAPEAAGGPSVFLFPPKPKDTLMISRTPEVTCVVVDVSHEDPEVKFNWYVDGVEVHNAKTKPREEQYNSTYRVVSVLTVLHQDWLNGKEYKCKVSNKALPAPIEKTISKAKGQPREPQVYTLPPSREEMTKNQVSLTCLVKGFYPSDIAVEWESNGQPENNYKTTPPVLDSDGSFFLYSKLTVDKSRWQQGNVFSCSVMHEALHNAYTQKSLSLSPGK
light: EVTLRESGPALVKPTQTLTLTCTFSGFSLSTYGMGVGWIRQPPGKALEWLANIWWDDDKYYNPSLKNRLTISKDTSKNQVVLTMTNMDPVDTATYYCARIESIGTTYSFDYWGQGTMVTVSSGGGGSDTVLTQSPATLSLSPGERATLSCRASESVSTHMHWYQQKPGQAPRLLIYGASNLESGVPARFSGSGSGTDFTLTISSLEPEDFAVYFCQQSWNDPFTFGQGTKLEIKGGSRTVAAPSVFIFPPSDEQLKSGTASVVCLLNNFYPREAKVQWKVDNALQSGNSQESVTEQDSKDSTYSLSSTLTLSKADYEKHKVYACEVTHQGLSSPVTKSFNRGEC
With B10, the “NIH-3T3 hPDGF-BB Potency IC50” value in test [4] is 96 pM. Also, the “HMVEC-d hVEGF165 Potency IC50” value in test [5] is 115 pM.

For orientation: IC50 means the concentration that inhibits the measured activity by half.
